Experimental data reported in paper PMC4116807 (Biochimica et biophysica acta, 2014).

Molecular target: the molecule itself
Experiment: AUC

B1: periplasmic sensor domain of the histidine kinase CusS (CusS 39-187) (domain or fragment, Escherichia coli W3110)
chain: VKVHFAEQDINDLKEISATLERVLNHPDETQARRLMTLEDIVSGYSNVLISLADSQGKTVYHSPGAPDIREFTRDAIPDKDAQGGEVYLLSGPTMMMPGHGHGHMEHSNWRMINLPVGPLVDGKPIYTLYIALSIDFHLHYINDLMNKLEGSS
Question: For B1, which “stoichiometry N” value is on record?
Answer: The value was 2.
